Our source for the Kd values is patent US20180057553A1, “CONJUGATE AND USE THEREOF” (The University of Tokyo, priority 2015, published 2018).

pKd: −log10 of the molar value.

The target of the experiment is recombinant human TNF-alpha (Life Technologies) (human) (UniProt P01375). As to the kind of experiment: SPR (Biacore), Etanercept amine-coupled to chip, TNF-alpha as analyte. (Surface plasmon resonance follows binding to a sensor surface in real time, without labels.)
recombinant human TNF-alpha (Life Technologies) (human), sequence (P01375 77-233 limits assumed): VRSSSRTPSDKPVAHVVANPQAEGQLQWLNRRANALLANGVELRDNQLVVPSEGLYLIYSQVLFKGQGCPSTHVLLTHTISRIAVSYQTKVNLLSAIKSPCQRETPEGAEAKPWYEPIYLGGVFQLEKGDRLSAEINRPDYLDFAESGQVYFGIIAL

As for “Etanercept (soluble TNF receptor, product name Enbrel, Takeda Pharmaceutical Company) (Fc fusion)”, the pKd was 9.50.

Broadly, the pKd is the negative decadic logarithm of the Kd, by convention in mol/L.
